The chains are these.
B1: Ribosomal RNA-processing protein 7 (Saccharomyces cerevisiae), P25368 (parent)
chain: MGIEDISAMKNGFIVVPFKLPDHKALPKSQEASLHFMFAKRHQSSNSNESDCLFLVNLPLLSNIEHMKKFVGQLCGKYDTVSHVEELLYNDEFGLHEVDLSALTSDLMSSTDVNEKRYTPRNTALLKFVDAASINNCWNALKKYSNLHAKHPNELFEWTYTTPSFTTFVNFYKPLDIDYLKEDIHTHMAIFEQREAQAQEDVQSSIVDEDGFTLVVGKNTKSLNSIRKKILNKNPLSKHENKAKPISNIDKKAKKDFYRFQVRERKKQEINQLLSKFKEDQERIKVMKAKRKFNPYT
partner: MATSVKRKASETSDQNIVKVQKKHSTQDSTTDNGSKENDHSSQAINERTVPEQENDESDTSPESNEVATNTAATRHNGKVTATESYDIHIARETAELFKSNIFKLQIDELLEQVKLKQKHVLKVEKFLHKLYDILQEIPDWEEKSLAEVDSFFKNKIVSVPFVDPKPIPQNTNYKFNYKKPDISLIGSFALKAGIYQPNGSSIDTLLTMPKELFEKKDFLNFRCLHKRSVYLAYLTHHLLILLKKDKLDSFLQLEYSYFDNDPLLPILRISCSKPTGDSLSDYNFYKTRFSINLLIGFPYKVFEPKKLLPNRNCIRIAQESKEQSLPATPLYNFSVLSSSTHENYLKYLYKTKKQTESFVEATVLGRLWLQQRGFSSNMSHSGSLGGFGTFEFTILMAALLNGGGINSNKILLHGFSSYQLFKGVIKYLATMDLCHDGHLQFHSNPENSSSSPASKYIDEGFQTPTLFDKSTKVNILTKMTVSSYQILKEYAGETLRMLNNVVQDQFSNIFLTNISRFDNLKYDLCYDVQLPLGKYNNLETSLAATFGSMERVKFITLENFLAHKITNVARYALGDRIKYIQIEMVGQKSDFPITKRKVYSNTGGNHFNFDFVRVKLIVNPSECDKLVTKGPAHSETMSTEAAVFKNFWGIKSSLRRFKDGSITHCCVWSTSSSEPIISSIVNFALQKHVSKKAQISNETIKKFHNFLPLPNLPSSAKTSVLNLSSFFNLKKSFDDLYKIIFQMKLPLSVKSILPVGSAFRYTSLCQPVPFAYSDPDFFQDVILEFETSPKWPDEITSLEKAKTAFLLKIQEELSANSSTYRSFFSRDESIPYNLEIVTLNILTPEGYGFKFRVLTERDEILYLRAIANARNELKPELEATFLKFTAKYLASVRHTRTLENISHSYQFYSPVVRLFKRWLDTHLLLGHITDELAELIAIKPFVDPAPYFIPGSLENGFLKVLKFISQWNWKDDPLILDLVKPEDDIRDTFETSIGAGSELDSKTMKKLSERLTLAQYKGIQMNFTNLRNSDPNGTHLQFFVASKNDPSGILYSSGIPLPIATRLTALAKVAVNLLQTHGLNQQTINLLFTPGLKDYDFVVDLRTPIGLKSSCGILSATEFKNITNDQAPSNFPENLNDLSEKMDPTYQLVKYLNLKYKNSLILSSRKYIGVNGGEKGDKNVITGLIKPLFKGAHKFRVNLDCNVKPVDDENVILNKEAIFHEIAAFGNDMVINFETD

The variants in this assay derive from B1. Conditions: with utp22_yeast UTP22, P53254.
As to F38D, the “effect of a mutation on the interaction” value is listed as “disrupting interaction strength”.
